Test results: article doi:10.1101/2020.08.31.274704

Columns and labels:
[1] = molecular target: prefusion stabilized trimeric SARS-CoV-2 spike protein ectodomain (S-ECD) (SARS-CoV-2) (UniProt P0DTC2); assay: BLI
[2] = molecular target: prefusion stabilized trimeric SARS-CoV-2 spike protein ectodomain (S-ECD) (SARS-CoV-2) (UniProt P0DTC2); assay: ELISA

ACE2 monomer, ACE2(1-615)-(GGGGS)5-HRV3C-eGFP-His8 (from UniProt Q9BYF1-1 18-615) (domain or fragment)
Kd [1]: 25 nM
IC50 [2]: 27 nM
